Assay results as given in the supplement of paper PMC9170038.

Test system: K4 kissing-loop RNA reporter
Experiment: apparent KD of K4 kissing-loop reporter; higher = weaker reporter binding
Conditions: Eterna round: R107
Procedure: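 RNA-MaP round R107: designed RNA switches with theophylline, tryptophan, arginine or FMN aptamers are transcribed on-chip within common flanks. They are titrated with a labelled K4 kissing-loop RNA reporter in RNA-MaP buffer (100 mM Tris pH 7.5, 80 mM KCl, 4 mM MgCl2), without ligand or with the indicated ligand. Median apparent KD per design.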

[1] = input ligand: theophylline 20 uM
[2] = input ligand: tryptophan 2.4 mM
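Also: bound reporter read as fluorescence of individual clusters on recovered sequencing chips by microscopy, with normalized cluster intensities fitted with a binding model.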

Sequence | apparent KD of K4 kissing-loop reporter (input ligand: FMN 200 uM) [nM] | apparent KD of K4 kissing-loop reporter (input ligand: arginine 13.2 mM) [nM] | apparent KD of K4 kissing-loop reporter (input ligand: none) [nM] | apparent KD of K4 kissing-loop reporter [1] [nM] | apparent KD of K4 kissing-loop reporter [2] [nM]
AGAUUCGACACGGCCGCCACUCGUGGUGGAUUACCUAGUGUCGAAGUUGAGUGAUGUUCAAGUACGAGGACCGGGUGUUGAGUCU [KL-XTryp-B8 #analogue] | 420 | 310 | 370 | 403 | 500
AAAGUUGAUGAGUUGGGUAUGUGUUCCGAAGGAGCGAGAAUUAUCUCAGGUAGGUCGCGGAAGAUGAGUGAUGUUCAUCUAUAAA [KL-XArg-A8 #analogue] | 147 | 137 | 162 | 144 | 127
AAGGGCGGAACAACCUCGCCGGAUAGAGAUACCAGCCCAGCAAUGGGCCCUUGGCAGCUCACUGACCUCAGUGAUGUUGAGGUUC [Laar] | 243 | 220 | 248 | 188 | 232
UCGAUAGAGAGUGAUGUUCUCGUAUCAGAUACCAGUCACGCGAGUGACCCUUGGCAGCUGAUGUACAGCUGAGAGUAGUAUUCGA [Theo A Ex t8] | 90.1 | 104 | 90.5 | 129 | 89.6
GGUGACAACCAGAGGUGAUGUAUAGAAUCGCGAGGACCGGUACGGCCGCCACUCGUGAAGAGAAAGGAGUGAUGUUCCGUAAUGG [Kazoo C6] | 271 | 249 | 282 | 364 | 124
UACGCCACAGACGUGGAGUACCUUGGGUCGAAGGAUAUCAGCAUUGUGAGAAGGUCGCCGAUUCUAAGUGAUGUUUAGAUCAGGG [theeternabot_sameState_KL_FMN_A_2] | 132 | 275 | 446 | 567 | 409
UGGCGGACGAUCCGGAGUGAUGUUCCGGAUACCAGCAGAAGAGCCUGCCCUUGGCAGCCGUACGACGCUGGGAGAGUCCGGCGUC [Soteina] | 83.8 | 90.3 | 81.1 | 66.7 | 76.9
UGACAUUGCUCAGAUACCAGACAUGAGCAUCAGCCAUGUGCCAAAACGUACUAAAUAAAUGUCCCUUGGCAGCUGAGCAAUGUCU [TheoBX 13] | 65 | 26.3 | 40.7 | 73.3 | 61.3
AAAAUAAACCAGUGAUGUUGGUGUCCAGAUACCAGCGGUAAAAUCCGCCCUUGGCAGCUGUGGACGUACAAAAUAAGUACGUCCU [MatMod 4 - Jieux - Same State - Theophylline A] | 430 | 321 | 463 | 286 | 358
GUAUGUGGAAACACGUACUUAUAUCCUAGGCAGGAUAUGCGGAAACGCAGAAGGGCCACCGGCGAGUUUAUCCAGUGAUGUUGGA [Ex FMN A 8] | 251 | 253 | 294 | 271 | 245
UGAUAGGACAGAAGGAGCGGUAGUGAUGUUGCCAAAAGUAUAAGGUGUCAAAAGACACCCUACCAGGUAGGUCGCUGUCCUAUCU | 319 | 346 | 354 | 541 | 340
AGCCGAAAGGCGAGUGCUGUCACUCCGGAAGGAGCGGCGAAAACGCCAGGUAGGUCGCCGGAGUGAUGUUCCGGUGCAGCACUCA [Omei KL Arginine A Exc B v2] | 603 | 410 | 932 | 521 | 492
AAUGUACAGGGAAGGAGCGUAGUCCAGUGAUGUUGGAAUUAAAUACCAGUGAUGUUGGUUAUACAGGUAGGUCGCCCUAAAGUGC [KL-XARG-B20] | 86.3 | 72.3 | 81.9 | 89.5 | 73.2
CCGUGGAGUGAUGUUCCACGUUCUACGGAUACCAGCCACGCCAGCGGCCCUUGGCAGCCGCACCUUGCAGUGAUGUUGUGAGGCU [Same State Theophylline A GF 5] | 365 | 312 | 349 | 330 | 302
AAAGUGUCAGCACGAGUGAUGUUCGACGAUACCAGCCUCGAUAGAGGCCCUUGGCAGCGUAAAAGUCAAGGGCUGGCACAUAAAA [#SwitchBubble 5 #K4Early] | 789 | 751 | 1300 | 494 | 1440
CGCUUGCACGGAAGGAGCGUCCAAGCGAGACACGAGUGAUGUUCGUGAUCGACGUAAACUGGACAGGUAGGUCGCCGUGCUUAAU [Eresti] | 107 | 91 | 121 | 101 | 100
UGAUAGGACAGAAGGAGCGGUAGUGAUGUUACCAAAAGGAUAAGGUGUCAAAAGACACCCUACCAGGUAGGUCGCUGUCCUAUCU | 124 | 112 | 107 | 85.1 | 109
AGGUUUUGAUUAGGAUAUGCACUGACGAUGAGAAUAUAGUGAUGUUAUAUACUACGAAUUAGUAGAGUAGAAGGGAUUGAGGUUU [SSFMNB.Z] | 568 | 338 | 414 | 459 | 335
AUUGUACAGGGAAGGAGCGUCGACCAGUGAUGUUGGAGUUAAAUACCAGUGAUGUUGGUUAGGCAGGUAGGUCGCCCUCAAGUAG [#10 K4 Arginine B Exclusion] | 180 | 126 | 141 | 219 | 118
CUUAGGUCAGUUACCCGAGUGAUGUUCUGUCGAGGACCGGUACGGCCGCCACUCGCUCAUUAUCGGUCUGACAAAGAGCUGGCUU [theeternabot_exclusion_KL_Trp_A_9] | 393 | 56.4 | 208 | 136 | 106
CCGUGGAGUGAUGUUCCACGUACUACGGAUACCAGCUUUGCCAAAGGCCCUUGGCAGCCGCACGUUGCAGUGAUGUUGUGGCGCG [Same State Theophylline A G9] | 345 | 241 | 327 | 328 | 299
AACGCUGGUGAAUAACACUAGCGAAAUUCGCGAGGACCGGUACGGCCGCCACUCGCUAACUGCGAGUGAUGUUCGAUAAUAAAAU [Mat - Mod of OpenEnded 3 - D7] | 174 | 125 | 197 | 280 | 122

Sequence | apparent KD of K4 kissing-loop reporter (input ligand: FMN 200 uM) [nM] | apparent KD of K4 kissing-loop reporter (input ligand: arginine 13.2 mM) [nM] | apparent KD of K4 kissing-loop reporter (input ligand: none) [nM] | apparent KD of K4 kissing-loop reporter [1] [nM] | apparent KD of K4 kissing-loop reporter [2] [nM]
AACGUUUUGUGAAGGAGCGCGAUAAGCAGUGAUGUUGCUUACUUACAAUUUAUAUUUUACACGCAGGUAGGUCGCACAAUACGUA [JR_SSArginiB_Sub017] | 207 | 160 | 190 | 163 | 173
AUUUUUUACAGAAGGAGCGUGUUUUAAUAAUCAUGGUGCUUAGCGAGUGAUGUUCGCUUUACACAGGUAGGUCGCUGUUUAUUUA [JR_Nu_ExcArginiB_Sub030] | 120 | 113 | 127 | 112 | 112
AGUGUUUGGUUAGAUACCAGCCGUCUGUGGAUAAUCCUCAGACCGCCAGUGAUGUUGGCAGGCCCUUGGCAGCUAACAGGACAGA [Ersoed] | 198 | 213 | 275 | 233 | 224
UGACUGGAUGGAAGGAGCGCUAAACUCCUAGUGAUGUUAGGGAAAUGAGGCAAAGCCUCGAGGCAGGUAGGUCGCCAUCUAGUCU [FiskerMod 18 - Jieux - Same State - Arginine B] | 160 | 121 | 155 | 148 | 144
UCUCAUCUCAGAAGGAGCGUGAGAGAAUAUUAGAAAUCGUCGAGUGAUGUUCGACGUCUCUCACAGGUAGGUCGCUGAGACGUCA [Arg B SS t9] | 111 | 107 | 97.4 | 121 | 111
GGAUAGGACGGAGGAUAUGGUAGUGAUGUUACCAAACUGGUUAAACAUGUCAGAAAACUGGCAUGACCAGAAGGCUGUCCUAUCG [FmnBX 27 G10] | 112 | 65.2 | 73 | 67.5 | 76.6
UGGAGUUGACGAAAAGUCAACUCCUGGGAAGGAGCGGACGAAAGUCCAGGUAGGUCGCUCACUACCAGUGAUGUUGGUACUUAAA | 229 | 350 | 293 | 299 | 206
UGAUACCAGACGGCCGCCACUCCUGCAGUCAAAAGACUGCUAAAGGAAAUCGUCCAGUGAUGUUGGAGGACCGGGUCUGGUAUCU [TrypBX 16 #SwitchBubble #Palindromic #StaticStem] | 1120 | 719 | 1380 | 991 | 403
AGACUACCACACUGUCAAUAGACAGUGGACUAGGAUAUGCUGAUAAGCAGAAGGAGUGAUGUUCCUCGGUAGUCAAUAAAAUAAU [FmnAX 13 G28+C67] | 323 | 318 | 286 | 489 | 273
UAGCGCAACCUGCUUACGUAUGAGCCGGAAGGAGCGGCAGAAUUGCCAGGUAGGUCGCCGGCCCAGUGAUGUUGGGAUGGUGUGG [Usritiis] | 265 | 226 | 252 | 223 | 228
UUAUAUAUAUCAGAUACCAGCAUAAUGGAAACAAAUUAUGUUAUGAGUGAUGUUCAUGUAUGCCCUUGGCAGCUGGUAUGGGUUU [KL-XTheo-B19] | 467 | 412 | 433 | 487 | 363
AGGGCACUGGCGGCCGCCACUUUUCGUGCGAACCAAAGCUAGUGAUGUUGGCUCCCUAGUUGCAAAAGGACCGGGCCGUUCAUCU [theeternabot_sameState_KL_Trp_B_37] | 315 | 195 | 302 | 296 | 211
AAAUCUUUCAGAAGGAGCGUGGAUUAUUCUUAUAUAUUUAUUACGAGUGAUGUUCGUAAUUCACAGGUAGGUCGCUGAUCAAUAA [JR_ExcArginiB_Sub006] | 87.5 | 105 | 91.1 | 109 | 89.8
UGGGCCGCCUGAGGAUAUAGAGACGAGUGAUGUUCGUGGAUAAGAGCCAGUGAUGUUGGGUUAUUUCUAGAAGGCGGGCGAACUU [Exclusion FMN B GF9] | 144 | 95.1 | 98.6 | 164 | 131
UGGAGUUGACGAAAAGUCAACUCCAGAGAAGGAGCGGACGAAAGUCCAGGUAGGUCGCUCACUACCAGUGAUGUUGGUACUAAAA | 167 | 190 | 204 | 204 | 181
ACGUGCACCAGUGAUGUUGGAAAAUAUGAAGGAGCGGGUGAAAGCCCAGGUAGGUCGCAUAAUAGCACGAGCCACGAAAGUGGCA | 131 | 175 | 184 | 154 | 117
UGUCAUUGGUCUGAUACCAGGUUGAUCGGUAAACGAUCUCCUGGAGUGAUGUUCCAAAAUAUCCCUUGGCAGCAGACCGAUGACU [TheoBS 6 #SwitchBubble #StaticStem] | 571 | 320 | 545 | 492 | 350
GCAGUGAUGUUGCACGAGUAGGCUAGAGUACGAGGACCGGUACGGCCGCCACUCGUACGGAAGUCGCUAAUUUAUGGAAUGGUGA [#05 K4 Tryptophan A Same State] | 713 | 473 | 548 | 455 | 435
UGUUUUUACUGAAGGAGCGGCAAUUGAUACGUAGAUAUAGUGAUGUUAUAUAAGAUAGAGAGCCAGGUAGGUCGCAGAAUGUAUC [ExArgB.aC] | 214 | 212 | 237 | 252 | 231
UGAUCUCGGCAGUGAUGUUGCAUAUGAGAAGGAGCGCACGAAAGUGCAGGUAGGUCGCUCAGCCAAAGAAAAUAAAACGAGAUCU [#SwitchBubble #K4Early] | 93.4 | 121 | 101 | 124 | 82
GGGUGAGCGCGAAGGAGCGCCCUGACAGGUUGCUGCCGUGGGCAGUGAUGUUGCUCAGUCCGGCAGGUAGGUCGCGUGCUCACCC | 187 | 163 | 164 | 210 | 170
